Data: article doi:10.1101/2024.07.31.606116

What was measured:
[1] = target: RAMP1 ECD-CTR ECD fusion protein (human) (UniProt O60894); assay: fluorescence polarisation
[2] = target: RAMP3 ECD-CTR ECD fusion protein (human) (UniProt O60896); assay: fluorescence polarisation
[3] = target: RAMP2 ECD-CTR ECD fusion protein (human) (UniProt O60895); assay: fluorescence polarisation
[4] = target: calcitonin receptor (CTR) extracellular domain (ECD) (human); assay: fluorescence polarisation
[5] = target: full-length human calcitonin receptor C-terminally tagged with NanoLuc luciferase (human) (UniProt P30988)
amylin receptor ECDs = assay: fluorescence polarisation

UniProt O60894, sequence (O60894 whole entry, the tested form may be a part): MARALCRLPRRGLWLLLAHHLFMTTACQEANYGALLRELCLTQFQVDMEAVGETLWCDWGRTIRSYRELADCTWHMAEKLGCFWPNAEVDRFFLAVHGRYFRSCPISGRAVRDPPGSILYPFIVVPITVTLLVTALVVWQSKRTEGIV
UniProt O60896, sequence (O60896 whole entry, the tested form may be a part): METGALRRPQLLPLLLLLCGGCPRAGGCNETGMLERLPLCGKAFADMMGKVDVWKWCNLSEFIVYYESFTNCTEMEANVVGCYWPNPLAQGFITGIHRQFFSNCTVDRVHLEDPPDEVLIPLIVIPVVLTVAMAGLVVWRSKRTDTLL
UniProt O60895, sequence (O60895 whole entry, looked up, the tested form may be a part): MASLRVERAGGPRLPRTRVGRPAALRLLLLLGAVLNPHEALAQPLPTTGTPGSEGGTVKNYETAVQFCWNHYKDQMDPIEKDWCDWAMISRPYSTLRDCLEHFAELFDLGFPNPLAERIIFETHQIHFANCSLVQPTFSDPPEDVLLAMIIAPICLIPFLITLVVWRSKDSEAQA
UniProt P30988, sequence (P30988 25-474): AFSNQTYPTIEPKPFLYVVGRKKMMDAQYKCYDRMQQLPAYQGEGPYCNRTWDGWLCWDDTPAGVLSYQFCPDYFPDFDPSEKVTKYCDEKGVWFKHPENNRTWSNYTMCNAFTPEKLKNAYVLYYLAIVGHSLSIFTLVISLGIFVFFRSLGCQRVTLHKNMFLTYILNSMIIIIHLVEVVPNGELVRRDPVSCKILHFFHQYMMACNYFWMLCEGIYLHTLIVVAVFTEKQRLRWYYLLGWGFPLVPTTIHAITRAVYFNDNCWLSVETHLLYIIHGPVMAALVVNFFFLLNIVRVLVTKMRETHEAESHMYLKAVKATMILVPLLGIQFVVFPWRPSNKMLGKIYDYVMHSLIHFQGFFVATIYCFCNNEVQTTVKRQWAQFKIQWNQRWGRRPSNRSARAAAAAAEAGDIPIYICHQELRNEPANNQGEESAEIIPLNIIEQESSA

Substance: rat amylin(27–37) L27Y/Y37P plus P29R (peptide)
- fold increase in affinity over rat amylin(27–37) L27Y/Y37P [1]: 4 fold

Substance: rat amylin(27–37) L27Y/Y37P plus S34HYP (hydroxyproline) (peptide)
- fold decrease in affinity against the peptide with S34P [1]: 9 fold

Substance: rat amylin(27–37) L27Y/Y37P plus P29K (peptide)
- fold increase in affinity over rat amylin(27–37) L27Y/Y37P [1]: 4 fold

Substance: rat amylin(27–37) L27Y/Y37P plus S34A (peptide)
- fold increase in affinity over rat amylin(27–37) L27Y/Y37P [1]: 2.5 fold

Substance: FITC-labeled AC413(6–25) with Y25P mutation (peptide)
- Kd [1]: 77 nM
- Kd [2]: 252 nM
- Kd [3]: 67 nM

Substance: FITC-labeled salmon calcitonin (sCT) fragment(22–32) (peptide)
- Kd [4]: 500 nM

Substance: pramlintide (peptide)
- EC50 of receptor activation (mini-Gs recruitment BRET, HEK293T cells) [5]: 72 nM

Substance: rat amylin(27–37) with L27Y and Y37P double mutations (peptide)
- Ki (amylin receptor ECDs): 4000 to 11000 nM

Substance: rat amylin(27–37) L27Y/Y37P plus S34P (peptide)
- fold increase in affinity over rat amylin(27–37) L27Y/Y37P [1]: 3.6 fold

Substance: rat amylin(27–37) with Y37HYP (hydroxyproline) mutation (peptide)
- fold increase in affinity over rat amylin(27–37) Y37P [1]: 5 fold
- fold increase in affinity over rat amylin(27–37) Y37P [2]: 3 fold

Substance: rat amylin(27–37) L27W/Y37P (peptide)
- fold increase in affinity over rat amylin(27–37) L27Y/Y37P [1]: 2 fold
